Results reported in patent publication US20120220530A1 (NOVOZYMES BIOPHARMA DK A S, published 2012).
Blank lines part the entries; values can stand above or below the binder they belong to.

How the values were obtained:
[1] = molecular target: T1, mouse serum albumin (mouse, UniProt P07724 25-608); assay: SPR, FcRn immobilized, 1:1 Langmuir model
T1 construct: mature; also called MSA; MouseSA
Experimental: SPR analyses were performed on a BIAcore 3000 instrument (GE Healthcare) using CM5 chips and immobilization of smFcRn-GST and shFcRn-GST variants or smFcRn was performed using the amine coupling kit (GE Healthcare). Protein samples (10 μg/ml) were injected in 10 mM sodium acetate at pH 4.5 (GE Healthcare), all as described by the manufacturer. Unreacted moieties on the surface were blocked with 1 M ethanolamine. For all experiments, phosphate buffer (67 mM phosphate buffer, 0.15 M NaCl, 0.005% TWEEN® 20) at pH 6.0 or pH 7.4, or HBS-P buffer (0.01 M HEPES, 0.15 M NaCl, 0.005% surfactant P20) at pH 7.4 were used as running buffer or dilution buffer. Kinetic measurements were performed using a low density immobilized surface (100-200 resonance units (RU)). […] In all cases, to correct for nonspecific binding and bulk buffer effects, responses obtained from the control surfaces and blank injections were subtracted from each interaction curve. Kinetic rate values were calculated using predefined models (Langmuir 1:1 ligand model, heterogeneous ligand model and steady state affinity model) provided by the BIAevaluation 4.1 software.
The KD's were generated using the B|Aevaluation 4.1 software) A Langmuir 1:1 ligand model was used throughout. The kinetic values represent the average or triplicates. ND means: Not determined. NA means: Not acquired

[2] = molecular target: T2, glutathione-S-transferase (GST)-fused shFcRn (human, UniProt P55899 24-290; P61769 21-119, limits assumed); assay: ELISA: albumin coated at the concentration on the axis, shFcRn-GST in solution, pH 6.0
T2 construct: Made as in Berntzen et al. 2005 / FEBS J. 2008; also called shFcRn-GST; GST-tagged shFcRn; not shown: GST tag
Experimental: One hundred μl of the substrate tetramethylbenzidine (TMB) (Calbiochem) was added to each well and incubated for 45 min before 100 μl of 0.25 M HCl was added. The absorbance was measured at 450 nm using a Sunrise TECAN spectrophotometer (TECAN, Maennedorf, Switzerland). The same ELISA was repeated with PBS/T pH 7.4.
Commercially available animal albumin (either Sigma-Aldrich or Calbiochem) were further purified as described in Andersen et al (2010). J. Biol. Chem. 285, (7), 4826-4836.

Kd [1]: 9.3 µM | koff [1]: 0.0394 s⁻¹ | kon [1]: 4200 M⁻¹ s⁻¹
B1: soluble mouse FcRn (smFcRn) (receptor)
chain 1: SETRPPLMYHLTAVSNPSTGLPSFWATGWLGPQQYLTYNSLRQEADPCGAWMWENQVSWYWEKETTDLKSKEQLFLEALKTLEKILNGTYTLQGLLGCELASDNSSVPTAVFALNGEEFMKFNPRIGNWTGEWPETEIVANLWMKQPDAARKESEFLLNSCPERLLGHLERGRRNLEWKEPPSMRLKARPGNSGSSVLTCAAFSFYPPELKFRFLRNGLASGSGNCSTGPNGDGSFHAWSLLEVKRGDEHHYQCQVEHEGLAQPLTVDLDSSARSS
chain 2: IQKTPQIQVYSRHPPENGKPNILNCYVTQFHPPHIEIQMLKNGKKIPKVEMSDMSFSKDWSFYILAHTEFTPTETDTYACRVKHASMAEPKTVYWDRDM

EC50 (read off the curve) [2]: ~1 µg/mL
B2: donkey serum albumin (ligand, UniProt Q5XLE4 25-607, looked up)
chain: DTHKSEIAHRFNDLGEKHFKGLVLVAFSQYLQQCPFEDHVKLVNEVTEFAKKCAADESAENCDKSLHTLFGDKLCTVATLRATYGELADCCEKQEPERNECFLTHKDDHPNLPKLKPEPDAQCAAFQEDPDKFLGKYLYEVARRHPYFYGPELLFHAEEYKADFTECCPADDKAGCLIPKLDALKERILLSSAKERLKCSSFQKFGERAFKAWSVARLSQKFPKADFAEVSKIVTDLTKVHKECCHGDLLECADDRADLTKYICEHQDSISGKLKACCDKPLLQKSHCIAEVKEDDLPSDLPALAADFAEDKEICKHYKDAKDVFLGTFLYEYSRRHPDYSVSLLLRIAKTYEATLEKCCAEADPPACYATVFDQFTPLVEEPKSLVKKNCDLFEEVGEYDFQNALIVRYTKKAPQVSTPTLVEIGRTLGKVGSRCCKLPESERLPCSENHLALALNRLCVLHEKTPVSEKITKCCTDSLAERRPCFSALELDEGYIPKEFKAETFTFHADICTLPEDEKQIKKQSALAELVKHKPKATKEQLKTVLGNFSAFVAKCCGAEDKEACFAEEGPKLVASSQLALA
notes: mature
